In PMC10397247:
One block for each binder: values may come before it.

Assays:
[1] = biological target: T1, 4H1406-bH; experiment: two-hybrid library CCNG1;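 also: natural log of median RNA to DNA barcode read ratio; higher means stronger binding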
T1 chain: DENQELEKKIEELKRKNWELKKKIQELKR

[2] = biological target: T2, 4H3592-bH; experiment: two-hybrid library CCNG1;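 also: natural log of median RNA to DNA barcode read ratio; higher means stronger binding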
T2 chain: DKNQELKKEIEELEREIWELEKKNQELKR

[3] = biological target: T3, 4H3601-bH; experiment: two-hybrid library CCNG1;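 also: natural log of median RNA to DNA barcode read ratio; higher means stronger binding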
T3 chain: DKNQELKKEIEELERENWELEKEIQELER

[4] = biological target: T4, 4H3907-bH; experiment: two-hybrid library CCNG1;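 also: natural log of median RNA to DNA barcode read ratio; higher means stronger binding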
T4 chain: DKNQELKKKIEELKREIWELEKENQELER

[5] = biological target: T5, 4H4038-bH; experiment: two-hybrid library CCNG1;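 also: natural log of median RNA to DNA barcode read ratio; higher means stronger binding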
T5 chain: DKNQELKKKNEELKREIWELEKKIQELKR

[6] = biological target: T6, 4H384-AA; experiment: two-hybrid library CCmax;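 also: natural log of median RNA to DNA barcode read ratio; higher means stronger binding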
T6 chain: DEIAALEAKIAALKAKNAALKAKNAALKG

[7] = biological target: T7, 4H3865-AA; experiment: two-hybrid library CCmax; conditions: mean of both orientations
T7 chain: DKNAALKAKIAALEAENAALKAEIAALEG

[8] = biological target: T8, 4H3905-AA; experiment: two-hybrid library CCmax; conditions: mean of both orientations
T8 chain: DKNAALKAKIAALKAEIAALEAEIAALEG

[9] = biological target: T9, 4H4038-AA; experiment: two-hybrid library CCmax; conditions: mean of both orientations
T9 chain: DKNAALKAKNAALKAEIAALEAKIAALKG

[10] = biological target: T10, 4H43-AA; experiment: two-hybrid library CCmax; conditions: mean of both orientations
T10 chain: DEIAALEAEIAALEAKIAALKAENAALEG

[11] = biological target: T11, 4H451-AA; experiment: two-hybrid library CCmax; conditions: mean of both orientations
T11 chain: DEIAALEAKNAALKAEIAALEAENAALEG

[12] = biological target: T12, 4H510-AA; experiment: two-hybrid library CCmax; conditions: mean of both orientations
T12 chain: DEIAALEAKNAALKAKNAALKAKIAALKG

[13] = biological target: T13, 4H697-AA; experiment: two-hybrid library CCmax; conditions: mean of both orientations
T13 chain: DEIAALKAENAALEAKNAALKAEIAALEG

[14] = biological target: T14, 4H982-AA; experiment: two-hybrid library CCmax; conditions: mean of both orientations
T14 chain: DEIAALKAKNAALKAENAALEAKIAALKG

[15] = biological target: T15, 4H_APH; experiment: two-hybrid library CCmax; conditions: mean of both orientations
T15 chain: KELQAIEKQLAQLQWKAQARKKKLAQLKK

[16] = biological target: T16, 4H_BCR; experiment: two-hybrid library CCmax; conditions: mean of both orientations
T16 chain: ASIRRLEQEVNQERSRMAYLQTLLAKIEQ

[17] = biological target: 4H_GCN4; experiment: two-hybrid library CCmax
Chain of 4H_GCN4 (chain, as listed by the source): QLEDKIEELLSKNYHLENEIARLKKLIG

[18] = biological target: GCN2_T; experiment: two-hybrid library CCmax; conditions: mean of both orientations
[19] = biological target: T17, O1-AA; experiment: two-hybrid library CCmax; conditions: mean of both orientations
T17 chain: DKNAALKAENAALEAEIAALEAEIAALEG

[20] = biological target: T18, O11-AA; experiment: two-hybrid library CCmax; conditions: mean of both orientations
T18 chain: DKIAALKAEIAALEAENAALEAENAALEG

[21] = biological target: T19, O13-AA; experiment: two-hybrid library CCmax; conditions: mean of both orientations
T19 chain: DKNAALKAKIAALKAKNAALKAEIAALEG

[22] = biological target: T20, O14-AA; experiment: two-hybrid library CCmax; conditions: mean of both orientations
T20 chain: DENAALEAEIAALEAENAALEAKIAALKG

[23] = biological target: T21, O2-AA; experiment: two-hybrid library CCmax; conditions: mean of both orientations
T21 chain: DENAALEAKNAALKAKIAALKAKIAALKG

[24] = biological target: T22, O3-AA; experiment: two-hybrid library CCmax; conditions: mean of both orientations
T22 chain: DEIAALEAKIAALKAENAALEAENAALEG

[25] = biological target: T23, O4-AA; experiment: two-hybrid library CCmax; conditions: mean of both orientations
T23 chain: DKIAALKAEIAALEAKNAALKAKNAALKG

[26] = biological target: T24, O5-AA; experiment: two-hybrid library CCmax; conditions: mean of both orientations
T24 chain: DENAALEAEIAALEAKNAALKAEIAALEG

[27] = biological target: T25, O6-AA; experiment: two-hybrid library CCmax; conditions: mean of both orientations
T25 chain: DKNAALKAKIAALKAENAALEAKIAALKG

[28] = biological target: T26, O7-AA; experiment: two-hybrid library CCmax; conditions: mean of both orientations
T26 chain: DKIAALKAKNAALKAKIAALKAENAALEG

[29] = biological target: T27, O8-AA; experiment: two-hybrid library CCmax; conditions: mean of both orientations
T27 chain: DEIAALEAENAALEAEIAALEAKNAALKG

[30] = biological target: T28, P10-AA; experiment: two-hybrid library CCmax; conditions: mean of both orientations
T28 chain: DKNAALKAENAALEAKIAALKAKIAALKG

[31] = biological target: T29, P9-AA; experiment: two-hybrid library CCmax; conditions: mean of both orientations
T29 chain: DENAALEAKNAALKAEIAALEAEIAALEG

[32] = biological target: T30, O12-bS; experiment: two-hybrid library CCNG1
T30 chain: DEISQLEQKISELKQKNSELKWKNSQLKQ

[33] = biological target: T31, O13-bS; experiment: two-hybrid library CCNG1
T31 chain: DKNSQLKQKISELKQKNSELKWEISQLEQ

[34] = biological target: T32, O14-bS; experiment: two-hybrid library CCNG1
T32 chain: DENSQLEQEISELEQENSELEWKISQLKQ

[35] = biological target: T33, O15-bS; experiment: two-hybrid library CCNG1
T33 chain: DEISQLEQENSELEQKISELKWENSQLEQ

[36] = biological target: T34, O16-bS; experiment: two-hybrid library CCNG1
T34 chain: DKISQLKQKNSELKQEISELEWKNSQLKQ

[37] = biological target: T35, O2-bS; experiment: two-hybrid library CCNG1
T35 chain: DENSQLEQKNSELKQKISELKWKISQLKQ

[38] = biological target: T36, O3-bS; experiment: two-hybrid library CCNG1
T36 chain: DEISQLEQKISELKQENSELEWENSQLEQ

[39] = biological target: T37, O4-bS; experiment: two-hybrid library CCNG1
T37 chain: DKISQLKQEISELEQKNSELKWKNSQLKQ

[40] = biological target: T38, O5-bS; experiment: two-hybrid library CCNG1
T38 chain: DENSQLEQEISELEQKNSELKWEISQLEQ

[41] = biological target: T39, O6-bS; experiment: two-hybrid library CCNG1
T39 chain: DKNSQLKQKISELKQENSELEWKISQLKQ

[42] = biological target: T40, O7-bS; experiment: two-hybrid library CCNG1
T40 chain: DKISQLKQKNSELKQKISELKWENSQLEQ

[43] = biological target: T41, O8-bS; experiment: two-hybrid library CCNG1
T41 chain: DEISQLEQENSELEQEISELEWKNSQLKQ

[44] = biological target: T42, O9-bS; experiment: two-hybrid library CCNG1
T42 chain: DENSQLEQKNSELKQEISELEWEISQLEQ

interaction score [1]: -0.652
interaction score [2]: 1.08
interaction score [3]: 0.0362
interaction score [4]: 1.11
interaction score [5]: -0.136
Binder: DENQELEKKIEELKRKNWELKKKIQELKR [4H1406-bH]

interaction score [6]: -1.34
interaction score [7]: -0.294
interaction score [8]: 0.75
interaction score [9]: -1.15
interaction score [10]: 0.71
interaction score [11]: -0.0732
interaction score [12]: -1.55
interaction score [13]: -1.86
interaction score [14]: -1.63
interaction score [15]: -1.66
interaction score [16]: -2.23
interaction score [17]: -2.22
interaction score [18]: -1.61
interaction score [19]: -1.04
interaction score [20]: 2.48
interaction score [21]: -1.52
interaction score [22]: 0.835
interaction score [23]: -1.68
interaction score [24]: 1.52
interaction score [25]: -0.235
interaction score [26]: -0.778
interaction score [27]: -0.52
interaction score [28]: -1.59
interaction score [29]: 0.295
interaction score [30]: -1.12
interaction score [31]: -0.334
Binder: DEIAALEAKIAALKAKNAALKAKNAALKG [4H384-AA]

interaction score [32]: -0.402
interaction score [33]: -2.21
interaction score [34]: -2.32
interaction score [35]: -0.445
interaction score [36]: -1.04
interaction score [37]: -0.108
interaction score [38]: 0.395
interaction score [39]: -0.445
interaction score [40]: -1.66
interaction score [41]: -0.702
interaction score [42]: -0.726
interaction score [43]: -0.862
interaction score [44]: -0.617
Binder: DEISQLEQKISELKQKNSELKWKNSQLKQ [O12-bS]
